Data as given in article PMC3347801.

Each substance was assayed against human CD81 large extracellular loop fused to glutathione S-transferase (UniProt P60033) (assay: CD81 binding assay (immobilized GST-CD81 LEL capture of E1E2 from cell lysate, detection with anti-E2 serum R646)). Details: lysate concentration normalized for reactivity with AP33 and ALP98 mAbs in a GNA ELISA; mock signal subtracted; triplicate; parent: est. 100; read off a plot.
Sequence of UniProt P60033 (P60033 113-201): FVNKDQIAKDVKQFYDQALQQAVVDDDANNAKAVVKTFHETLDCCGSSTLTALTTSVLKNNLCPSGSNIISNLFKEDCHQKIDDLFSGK

**Q.** Which percent of parent does the source give for “HCV envelope glycoprotein E1, wild type (genotype 1a strain H77c) (from UniProt P27958) in218 (VFKHD inserted after D218)” here?
**A.** 93 % of WT

**Q.** How did the percent of parent turn out when “HCV envelope glycoprotein E1, wild type (genotype 1a strain H77c) (from UniProt P27958) in263 (CLNID inserted after D263)” was run?
**A.** 93 % of WT

**Q.** “HCV envelope glycoprotein E1, wild type (genotype 1a strain H77c) (from UniProt P27958) in324 (FKQMM inserted after M324)” was tested. Which percent of parent did it give?
**A.** 88 % of WT

**Q.** With “HCV envelope glycoprotein E1, wild type (genotype 1a strain H77c) (from UniProt P27958) in341 (LFKHP inserted after P341)” as the substance, how does the percent of parent read?
**A.** 100 % of WT

**Q.** “HCV envelope glycoprotein E1, wild type (genotype 1a strain H77c) (from UniProt P27958) in343 (CLNKA inserted after A343)” was tested. Which percent of parent did it give?
**A.** 66 % of WT

**Q.** For “HCV envelope glycoprotein E2, wild type (genotype 1a strain H77c) (from UniProt P27958) in413 (MFKQL inserted after L413)”, which percent of parent is on record?
**A.** 72 % of WT

**Q.** For “HCV envelope glycoprotein E2, wild type (genotype 1a strain H77c) (from UniProt P27958) in422 (MFKHI inserted after I422)”, which percent of parent is on record?
**A.** 22 % of WT

**Q.** Which percent of parent does the source give for “HCV envelope glycoprotein E2, wild type (genotype 1a strain H77c) (from UniProt P27958) in424 (CLNNS inserted after S424)” here?
**A.** 25 % of WT

**Q.** How did the percent of parent turn out when “HCV envelope glycoprotein E2, wild type (genotype 1a strain H77c) (from UniProt P27958) in531 (MFKHA inserted after A531)” was run?
**A.** 18 % of WT

**Q.** With “HCV envelope glycoprotein E2, wild type (genotype 1a strain H77c) (from UniProt P27958) in533 (CLNND inserted after D533)” as the substance, how does the percent of parent read?
**A.** 19 % of WT

**Q.** Which percent of parent does the source give for “HCV envelope glycoprotein E2, wild type (genotype 1a strain H77c) (from UniProt P27958) in540 (CLNIN inserted after N540)” here?
**A.** 59 % of WT

**Q.** With “HCV envelope glycoprotein E2, wild type (genotype 1a strain H77c) (from UniProt P27958) in549 (CLNNW inserted after W549)” as the substance, how does the percent of parent read?
**A.** 45 % of WT

**Q.** For “HCV envelope glycoprotein E2, wild type (genotype 1a strain H77c) (from UniProt P27958) in573 (CLNRG inserted after G573)”, which percent of parent is on record?
**A.** 98 % of WT

**Q.** “HCV envelope glycoprotein E2, wild type (genotype 1a strain H77c) (from UniProt P27958) in587 (CLNIR inserted after R587)” was tested. Which percent of parent did it give?
**A.** 83 % of WT

**Q.** “HCV envelope glycoprotein E2, wild type (genotype 1a strain H77c) (from UniProt P27958) in611 (LFKHY inserted after Y611)” was tested. Which percent of parent did it give?
**A.** 34 % of WT

**Q.** How did the percent of parent turn out when “HCV envelope glycoprotein E2, wild type (genotype 1a strain H77c) (from UniProt P27958) in614 (LFKHR inserted after R614)” was run?
**A.** 25 % of WT

**Q.** With “HCV envelope glycoprotein E2, wild type (genotype 1a strain H77c) (from UniProt P27958) in620 (CLNTC inserted after C620)” as the substance, how does the percent of parent read?
**A.** 23 % of WT

**Q.** How did the percent of parent turn out when “HCV envelope glycoprotein E2, wild type (genotype 1a strain H77c) (from UniProt P27958) in630 (CLNIR inserted after R630)” was run?
**A.** 33 % of WT

**Q.** How did the percent of parent turn out when “HCV envelope glycoprotein E2, wild type (genotype 1a strain H77c) (from UniProt P27958) in682 (LFKHL inserted after L682)” was run?
**A.** 83 % of WT

**Q.** Which percent of parent does the source give for “HCV envelope glycoprotein E2, wild type (genotype 1a strain H77c) (from UniProt P27958) in692 (LFKHL inserted after L692)” here?
**A.** 82 % of WT

**Q.** For “HCV envelope glycoprotein E2, wild type (genotype 1a strain H77c) (from UniProt P27958) in726 (FKHLL inserted after L726)”, which percent of parent is on record?
**A.** 72 % of WT

**Q.** Which percent of parent does the source give for “HCV envelope glycoprotein E2, wild type (genotype 1a strain H77c) (from UniProt P27958) in732 (CLNIC inserted after C732)” here?
**A.** 77 % of WT

**Q.** How did the percent of parent turn out when “HCV envelope glycoprotein E2, wild type (genotype 1a strain H77c) (from UniProt P27958) in734 (CLNTC inserted after C734)” was run?
**A.** 96 % of WT
